The results in this text go back to article PMC8667043, “First-in-Class Inhibitors of the Ribosomal Oxygenase MINA53” (Journal of Medicinal Chemistry, 2021).

By Km is commonly meant the concentration of substrate that gives half-maximal velocity. As a reminder, the Vmax is the top rate of the reaction or transport when substrate is in excess.

Substrate in series [1]: CC[C@H](C)[C@H](NC(=O)[C@H](Cc1c[nH]cn1)NC(=O)[C@H](CCC(N)=O)NC(=O)[C@H](Cc1c[nH]cn1)NC(=O)[C@H](CC(N)=O)NC(=O)CNC(=O)CNC(=O)CNC(=O)[C@H](Cc1ccccc1)NC(=O)[C@@H]1CCCN1C(=O)[C@H](Cc1c[nH]cn1)NC(=O)[C@H](CCC(=O)O)NC(=O)[C@@H](NC(=O)[C@@H]1CCCN1C(=O)[C@@H](N)CC(N)=O)C(C)C)C(=O)NCC(=O)N[C@@H](CCCCN)C(=O)N1CCC[C@H]1C(=O)N[C@@H](CO)C(=O)N[C@H](C(=O)O)[C@@H](C)O
The experiment in a line: Determination of enzyme kinetic parameters (MS assay). The conditions noted are these: other: 2OG, Fe(II): NO66 (Ser183-Asn641), n = 4; peptide: NO66 (Gln116-Asn641), n = 3; means ± 95% confidence. The class given is biochemical.

Substrate in series [2]: CC[C@H](C)[C@H](NC(=O)[C@H](CCCNC(=N)N)NC(=O)[C@H](Cc1c[nH]cn1)NC(=O)[C@H](Cc1c[nH]cn1)NC(=O)[C@H](Cc1c[nH]cn1)NC(=O)[C@H](CC(C)C)NC(=O)CNC(=O)CNC(=O)[C@H](C)NC(=O)[C@H](CC(N)=O)NC(=O)CNC(=O)[C@H](CCCNC(=N)N)NC(=O)CN)C(=O)N[C@@H](CC(N)=O)C(=O)N[C@@H](Cc1ccccc1)C(=O)N[C@@H](CC(=O)O)C(=O)N[C@@H](CCCCN)C(=O)N[C@@H](Cc1ccc(O)cc1)C(=O)N[C@@H](Cc1c[nH]cn1)C(=O)N1CCC[C@H]1C(=O)O
Described as above. In kind it is biochemical. As to conditions: other: 2OG, Fe(II): MINA53 (Met26-Val464), n = 4; peptide: MINA53 (Met1-Val464), n = 3; means ± 95% confidence.

B1: NO66 (Homo sapiens) (protein)
chain: MDGLQASAGPLRRGRPKRRRKPQPHSGSVLALPLRSRKIRKQLRSVVSRMAALRTQTLPSENSEESRVESTADDLGDALPGGAAVAAVPDAARREPYGHLGPAELLEASPAARSLQTPSARLVPASAPPARLVEVPAAPVRVVETSALLCTAQHLAAVQSSGAPATASGPQVDNTGGEPAWDSPLRRVLAELNRIPSSRRRAARLFEWLIAPMPPDHFYRRLWEREAVLVRRQDHTYYQGLFSTADLDSMLRNEEVQFGQHLDAARYINGRRETLNPPGRALPAAAWSLYQAGCSLRLLCPQAFSTTVWQFLAVLQEQFGSMAGSNVYLTPPNSQGFAPHYDDIEAFVLQLEGRKLWRVYRPRVPTEELALTSSPNFSQDDLGEPVLQTVLEPGDLLYFPRGFIHQAECQDGVHSLHLTLSTYQRNTWGDFLEAILPLAVQAAMEENVEFRRGLPRDFMDYMGAQHSDSKDPRRTAFMEKVRVLVARLGHFAPVDAVADQRAKDFIHDSLPPVLTDRERALSVYGLPIRWEAGEPVNVGAQLTTETEVHMLQDGIARLVGEGGHLFLYYTVENSRVYHLEEPKCLEIYPQQADAMELLLGSYPEFVRVGDLPCDSVEDQLSLATTLYDKGLLLTKMPLALN
Take B1: in series [1], the Michaelis-Menten constant (Km) was determined as 19.11 ± 6.3 µM and the maximum rate (Vmax) turned out to be 0.34 ± 0.05 µM/min.

B2: MINA53 (Homo sapiens) (protein)
chain: MPKKAKPTGSGKEEGPAPCKQMKLEAAGGPSALNFDSPSSLFESLISPIKTETFFKEFWEQKPLLIQRDDPALATYYGSLFKLTDLKSLCSRGMYYGRDVNVCRCVNGKKKVLNKDGKAHFLQLRKDFDQKRATIQFHQPQRFKDELWRIQEKLECYFGSLVGSNVYITPAGSQGLPPHYDDVEVFILQLEGEKHWRLYHPTVPLAREYSVEAEERIGRPVHEFMLKPGDLLYFPRGTIHQADTPAGLAHSTHVTISTYQNNSWGDFLLDTISGLVFDTAKEDVELRTGIPRQLLLQVESTTVATRRLSGFLRTLADRLEGTKELLSSDMKKDFIMHRLPPYSAGDGAELSTPGGKLPRLDSVVRLQFKDHIVLTVLPDQDQSDEAQEKMVYIYHSLKNSRETHMMGNEEETEFHGLRFPLSHLDALKQIWNSPAISVKDLKLTTDEEKESLVLSLWTECLIQVV
Regarding B2, in series [2], the Michaelis-Menten constant (Km) was determined as 10.5 ± 5.5 µM and the Vmax came to 0.36 ± 0.1 µM/min.
